The values below come from article PMC7954794 (2021).

The labels stand for the following.
B1: S. cerevisiae Abp1 (full length; SH3 domain 535-592 mutated) / Hua2 (parent complex)
chain 1: MALEPIDYTTHSREIDAEYLKIVRGSDPDTTWLIISPNAKKEYEPESTGSSFHDFLQLFDETKVQYGLARVSPPGSDVEKIIIIGWCPDSAPLKTRASFAANFAAVANNLFKGYHVQVTARDEDDLDENELLMKISNAAGARYSIQTSSKQQGKASTPPVKKSFTPSKSPAPVSKKEPVKTPSPAPAAKISSRVNDNNDDDDWNEPELKERDFDQAPLKPNQSSYKPIGKIDLQKVIAEEKAKEDPRLVQKPTAAGSKIDPSSDIANLKNESKLKRDSEFNSFLGTTKPPSMTESSLKNDDDKVIKGFRNEKSPAQLWAERKAKQNSGNAETKAEAPKPEVPEDEPEGEPDVKDLKSKFEGLAASEKEEEEMENKFAPPPKKSEPTIISPKPFSKPQEPVKAEEAEQPKTDYKKIGNPLPGMHIEADNEEEPEENDDDWDDDEDEAAQPPLPSRNVASGAPVQKEEPEQEEIAPSLPSRNSIPAPKQEEAPEQAPEEEIEEEAEEAAPQLPSRSSAAPPPPPRRATPEKKPKENPWATAEYDYDAAEDNELTFVENDKIINIEFVDDDWWLGELEKDGSKGLFPSNYVSLGN
chain 2: MQQTKFGKMYLDHDSVVEYSEDEIVEADRITLGYKKRLSMIENQMRHLLEDFSLDVQQIEPILADLQKYYDAFLQLLQKRNKSLQCKRSTHQPVPSPMNSQTSTNAKVNLSGKLMKFQLNSVQKFDEENILRILQNKIEFEHYFQIDKGKKQKVLLLAVYQCLNGPTRLHKVLNIEGIIHNNSIRTILGKQVSSSKWTVFLYDVKLVLLAHRQDVPNLETSKMIVRYGDLFPCALYFKDHTAY

In the assay the parent is B1. As to the kind of experiment: DHFR protein-fragment complementation in yeast (Abp1-DHFR F[1,2] x partner-DHFR F[3]), deep mutational scanning, second methotrexate selection vs reference; S. cerevisiae, DHFR-PCA selection in liquid with methotrexate at 30 C, two 72 h selections (the score uses the second); reference = the pre-selection culture.
Take chain 1 L582F: the screen value is 0.039 DMS score: mean over two replicates of log2(f_test/f_ref + 0.5)/ln 2, minus the synonymous-codon median (not a log2 ….

For chain 1 L582M, the screen value was -2.34 DMS score: mean over two replicates of log2(f_test/f_ref + 0.5)/ln 2, minus the synonymous-codon median (not a log2 ….

chain 1 N549P: the screen value is -0.774 DMS score: mean over two replicates of log2(f_test/f_ref + 0.5)/ln 2, minus the synonymous-codon median (not a log2 ….

Regarding chain 1 N549F, the screen value is 0.0612 DMS score: mean over two replicates of log2(f_test/f_ref + 0.5)/ln 2, minus the synonymous-codon median (not a log2 ….

As for chain 1 N549W, the screen value was -2.49 DMS score: mean over two replicates of log2(f_test/f_ref + 0.5)/ln 2, minus the synonymous-codon median (not a log2 ….

Turning to chain 1 S585N, the screen value was -0.135 DMS score: mean over two replicates of log2(f_test/f_ref + 0.5)/ln 2, minus the synonymous-codon median (not a log2 ….

For chain 1 E540D, the screen value is 0.44 DMS score: mean over two replicates of log2(f_test/f_ref + 0.5)/ln 2, minus the synonymous-codon median (not a log2 ….

Take chain 1 E540S: the screen value was -1.11 DMS score: mean over two replicates of log2(f_test/f_ref + 0.5)/ln 2, minus the synonymous-codon median (not a log2 ….

With chain 1 E540G, the screen value was -1.94 DMS score: mean over two replicates of log2(f_test/f_ref + 0.5)/ln 2, minus the synonymous-codon median (not a log2 ….

For chain 1 E540R, the screen value is -2.88 DMS score: mean over two replicates of log2(f_test/f_ref + 0.5)/ln 2, minus the synonymous-codon median (not a log2 ….

chain 1 E540N: the screen value was -1.77 DMS score: mean over two replicates of log2(f_test/f_ref + 0.5)/ln 2, minus the synonymous-codon median (not a log2 ….

chain 1 E540Q: the screen value is -1.08 DMS score: mean over two replicates of log2(f_test/f_ref + 0.5)/ln 2, minus the synonymous-codon median (not a log2 ….

chain 1 E563H: the screen value is -1.36 DMS score: mean over two replicates of log2(f_test/f_ref + 0.5)/ln 2, minus the synonymous-codon median (not a log2 ….

Take chain 1 E575H: the screen value is 0.233 DMS score: mean over two replicates of log2(f_test/f_ref + 0.5)/ln 2, minus the synonymous-codon median (not a log2 ….

For chain 1 E575K, the screen value is 0.0377 DMS score: mean over two replicates of log2(f_test/f_ref + 0.5)/ln 2, minus the synonymous-codon median (not a log2 ….

On to chain 1 E575Y, for which the screen value is -0.704 DMS score: mean over two replicates of log2(f_test/f_ref + 0.5)/ln 2, minus the synonymous-codon median (not a log2 ….

Take chain 1 L574T: the screen value is -0.934 DMS score: mean over two replicates of log2(f_test/f_ref + 0.5)/ln 2, minus the synonymous-codon median (not a log2 ….

On to chain 1 L574I, for which the screen value is -0.989 DMS score: mean over two replicates of log2(f_test/f_ref + 0.5)/ln 2, minus the synonymous-codon median (not a log2 ….

Regarding chain 1 N592R, the screen value was 0.515 DMS score: mean over two replicates of log2(f_test/f_ref + 0.5)/ln 2, minus the synonymous-codon median (not a log2 ….

As to chain 1 N592Y, the screen value is 0.405 DMS score: mean over two replicates of log2(f_test/f_ref + 0.5)/ln 2, minus the synonymous-codon median (not a log2 ….

Regarding chain 1 G591K, the screen value was 0.45 DMS score: mean over two replicates of log2(f_test/f_ref + 0.5)/ln 2, minus the synonymous-codon median (not a log2 ….

For chain 1 G591L, the screen value is -0.124 DMS score: mean over two replicates of log2(f_test/f_ref + 0.5)/ln 2, minus the synonymous-codon median (not a log2 ….

In the case of chain 1 K558R, the screen value was 0.719 DMS score: mean over two replicates of log2(f_test/f_ref + 0.5)/ln 2, minus the synonymous-codon median (not a log2 ….

As for chain 1 K558V, the screen value was 0.774 DMS score: mean over two replicates of log2(f_test/f_ref + 0.5)/ln 2, minus the synonymous-codon median (not a log2 ….

On to chain 1 K558A, for which the screen value was -0.817 DMS score: mean over two replicates of log2(f_test/f_ref + 0.5)/ln 2, minus the synonymous-codon median (not a log2 ….

On to chain 1 N586H, for which the screen value is -1.55 DMS score: mean over two replicates of log2(f_test/f_ref + 0.5)/ln 2, minus the synonymous-codon median (not a log2 ….

For the variant chain 1 N586M, the screen value is 2.45 DMS score: mean over two replicates of log2(f_test/f_ref + 0.5)/ln 2, minus the synonymous-codon median (not a log2 ….

Consider chain 1 N586P, for which the screen value is -0.0573 DMS score: mean over two replicates of log2(f_test/f_ref + 0.5)/ln 2, minus the synonymous-codon median (not a log2 ….

Consider chain 1 N586I, for which the screen value was 0.632 DMS score: mean over two replicates of log2(f_test/f_ref + 0.5)/ln 2, minus the synonymous-codon median (not a log2 ….

For the variant chain 1 A537C, the screen value was 0.422 DMS score: mean over two replicates of log2(f_test/f_ref + 0.5)/ln 2, minus the synonymous-codon median (not a log2 ….

For chain 1 I560R, the screen value was 0.102 DMS score: mean over two replicates of log2(f_test/f_ref + 0.5)/ln 2, minus the synonymous-codon median (not a log2 ….

Turning to chain 1 S579T, the screen value is 0.556 DMS score: mean over two replicates of log2(f_test/f_ref + 0.5)/ln 2, minus the synonymous-codon median (not a log2 ….

As for chain 1 S579L, the screen value was -0.943 DMS score: mean over two replicates of log2(f_test/f_ref + 0.5)/ln 2, minus the synonymous-codon median (not a log2 ….

chain 1 S579M: the screen value was -0.58 DMS score: mean over two replicates of log2(f_test/f_ref + 0.5)/ln 2, minus the synonymous-codon median (not a log2 ….

Consider chain 1 G578K, for which the screen value is -0.619 DMS score: mean over two replicates of log2(f_test/f_ref + 0.5)/ln 2, minus the synonymous-codon median (not a log2 ….

As for chain 1 G578M, the screen value is -0.96 DMS score: mean over two replicates of log2(f_test/f_ref + 0.5)/ln 2, minus the synonymous-codon median (not a log2 ….

As to chain 1 A539V, the screen value is -0.172 DMS score: mean over two replicates of log2(f_test/f_ref + 0.5)/ln 2, minus the synonymous-codon median (not a log2 ….

In the case of chain 1 I559V, the screen value is -0.155 DMS score: mean over two replicates of log2(f_test/f_ref + 0.5)/ln 2, minus the synonymous-codon median (not a log2 ….
